Results on 21 sequences are retold here after the DeepSol protein solubility set.

The series in a line: soluble on expression in E. coli; label from the status in PepcDB or PDB records.
As for “MSLKLLIVENDRDTAAALTTSLVAQQFTVDTASDSRSALELAEATEYDLIVLDVMLPDENGIRLCRQLRTQNQQEPILLLTRKVNPADRIAGFEAGADDYITKPYELSELLARIRALLRRGSTVLTKVLCWGQLQLDPNNCEVMCQGKGLHLTPKEYKLLELFLRHPRRIFDRRTLLDRICSIDECPGEEAITTQIRGLRRKLQMAGLNSDPIETLYGLGYRLKSEGHHHHHH”, the “soluble on expression in E. coli” value is recorded as “not soluble”.

For the sequence “MVIKDPRITRFRKMLAQATNYEQWKAAALELDFLEGNAEWKEDFASDLYHYELIYDRLSNLKQYRQQNDFERLKRALREGLHHDLGNMGNPALYTRSRVGTKHLIEEYITQVCESLDYLCDHPVPGFPVYDKLQFFRDTLTSYGRPTLLLSGGASLGMFHFGVIKALWEKGLLPQVIAGSSIGAIIAGILGIHTDAEIPEMLVPESHNLKAWKWRGLLSAMRGTGLMDQDTLRRCLRENIGDYTFEEAYQRTGRSINISVSPVQAHQKARLLCGYTSPYLLVWSAALASAAVPGIFPPVTLMKKDLNGNSLPYMPRLKFVDGSVVSDLPIERLMHLYDVNFTIVSQTNPHVVPFLTDRGQDEKLSLTNLPSHLLKSEVQFHGQGVFDYLRKRVRPEILRQLSGQMYTIMAQRYSGDVTIAPNYSLRHFRRMLANPSPEYVREMILEGERATWPKISMIRSHARISKTLERCVRRLKQQNRRAAELEHHHHHH”, the “soluble on expression in E. coli” value was “not soluble”.

With “SNAYTDESGLSELVNAAGEKLQDLELMGQKNAVRDFFKELIADSGKVAYGESQVRANLEINSVDVLLLSEDLRAERVTTKCSVCGYENKWTRRWKPGEPAPAAGNCPKCGSSLEVTDVTDIVDEFSELADKSNAKVVFVSTDFDEGSQLMNAFGGIAAILRYNTGV”, the “soluble on expression in E. coli” value is listed as “soluble”.

Regarding “MAHHHHHHMLFRTIRHFDLRRPTLMELVRELRFRTEAPIADCCAALKEANENMDRALEVLRNKGLAKAVKKGSRVTEHGSVVACVGETFGAAIVTVCSETDFAARSLQFQRVCGTVMETLRTQIISTEGTALDDCAAVHRLLTDAAAEQIQATIAVLGENVTIKSIQPLRFAPHVAEHISIGAYTHGTLSVQNVGRVAGVVAVSRTDPSARVPEEKLVDVARHFVACSGAEGSYAHQNFFGTEETVGQWLKRHGLRFSSSLVVDFGKEPIIHTAPQPVAGTK”, the “soluble on expression in E. coli” value is “soluble”.

Take “MGNIGSPPKFDEYPNGNEEPRRVLRLNVYFDNPVQNKDGAYDDRGGFWAPVDWWHRDAERWATLFAKGMRVAVRGHLERDDWTDGDGEPHTTYKVDARSVGILPYRLDAVHLSPLEHHHHHH”: the “soluble on expression in E. coli” value was “not soluble”.

Consider “MSLKRLTSRRQKGGGCPDLTIRAHHLLCMRGFQGYGYSEEFTENLARIIHEIKGNPSAFLMIVDFPDDICRACPFMDGLRCLRDEERIRSMDRRVLELLKLESGCMVTFHDIEDALLALITSGKIMEICGECSWMDLCLIHREGHHHHHH”, for which the “soluble on expression in E. coli” value was “not soluble”.

Take “MLYDKWDVIMKKVQDIVEAIPKNGTLSIVQRDLESNGDKFALKNPPQSFNLEHHHHHH”: the “soluble on expression in E. coli” value is given as “not soluble”.

With “KALYSKPGSKNGRWNPETHKFCKCGVRIQTSAYTCSKCRNRSGENNSFFNHKHSDITKSKISEKMKGKKPSNIKKISCDGVIFDCAADAARHFKISSGLVTYRVKSDKWNWFYINA”, the “soluble on expression in E. coli” value is given as “soluble”.

On to “MARQKDTFYFEGFRRSADYACQAAKLLSEVMHDFNPGQLRERMDSMHAIEKSADEVRHDMMDELVTAFITPFDREDIDELGHVLDDVTDSIEGVLNRMYYDNVTDMRDDAVQMSDMVVRATESICELVNELPRFRHSKTLRELVFAINTIETDADHLFIESMRTLHTTCTDPLQVFAWHDVYRHLEQCSDDCERVANTIDSIVMKNSLEHHHHHH”, for which the “soluble on expression in E. coli” value is “soluble”.

For “MSLYRELMQKKNVRPYVLMARFGLEKENQRSTREGLLATTEHPTVFGNRSYHPYIQTDFSETQLELITPVANSGTEMLRFLDAIHDVARRSIPEDEMLWPLSMPPQLPTKDEEIKIAKLDQYDAVLYRRYLAKEYGKRKQMVSGIHFNFEYDQALIQQLYDEQSEVTDCKQFKTKVYMKVARNFLRYRWLITYLFGASPVSEDRYFRVYDDQPQEPVRSIRNSTYGYRNHDNVKVSYASLERYLEDIHRMVENGLLSEEKEFYAPVRLRGGKQMSDLPKTGIRYIELRNLDLNPFSRLGIVEDTVDFLHYFMLYLLWTDEKEEADEWVKTGDIFNEQVALGHPHETIKLIAEGDRIFSEMIDMLDALGIRKGKEVVGKYYQQLRNPQDTVSGKMWTIIQENSNSELGNIFGNQYQSMAFERPYQLAGFREMELSTQIFLFDAIQKGLEIEILDEQEQFLKLQHGEHIEYVKNANMTSKDNYVVPLIMENKTVTKKILSAAGFHVPGGEEFSSFIEAQEAHLRYANKAFVVKPKSTNYGLGITIFKEGASLEDFTEALRIAFKEDTAVLIEEFLPGTEYRFFVLDNDVKAIMLRVPANVTGDGKHTVEELVAAKNSDPLRGTNHRAPLELIQLNDLEKLMLKEQGLTIYSVPEKEQIVYLRENSNVSTGGDSIDMTDVIDDSYKQIAIEAVAALGAKICGIDLIIPDKDVKGTRDSLTYGIIEANFNPAMHMHVYPYAGQGRRLTMDVLKLLYPEVVQEGGSHHHHHH”, the “soluble on expression in E. coli” value is recorded as “soluble”.

As for “MGSSHHHHHHSSGEDRYKEKLLQKAKAEGVESIEELKKRLADQIEEKKKELNKIDPLRELEQHLNAGSRIHTNKEHKTTKMSNKSNEKSGNVLPKDKPYKTLDDYLKLDKIKDLSKQEVEFLWRAKWSNRDDSLVAVVPYVKTFQGMYKYAVKNPLFVLPLPRENAADGNKADKDSVPVELQYVQWQFAGPNTVHCLITSLAEYKLHQDFAKPHTTIQFHLDLANDKDMVLMNGQVESDSNVSLQDAQLLLLNVQRFYGAMGSETSIAKERIQLLEDFNKGSQNFDINKLIQLAQSMEN”, the “soluble on expression in E. coli” value is recorded as “soluble”.

As to “MGHHHHHHSHYHVYWLEMVLFYRAHFGTDETILDGKEYDIYVSYARNAEEEEFVLLTLRGVLENEFGYKLCIFDRDSLPGGIVTDETLSFIQKSRRLLVVLSPNYVLQGTQALLELKAGLENMASRGNINVILVQYKAVKETKVKELKRAKTVLTVIKWKGEKSKYPQGRFWKQLQVAMPVKKSPRRSSS”, the “soluble on expression in E. coli” value is reported as “soluble”.

As to “MSLKAVSEADIQAALKEGGTITVWAWEPTLKQVATDFEKEHPGVKVDLVNAGTNKDQYTALQNAISAKKGVPDVAQIEYYAMGQYALTKQLTDLKSFGADKLSAQFSPGPWNGVKAGSDGVYALPMDSGPMALFYNKKVFDKYDIKVPTTWAEYLDAARDLHKADPKAYITADNGDAGFATSMLWQAGSRPYTVDGTKVKIDFSDQGAKTFTETWQQLIDEKLLASVPAWTDEWYKGLGDGSIATLATGAWMPANLESGAKSASGDWRVAPMPQWKAGDKVSAENGGSALALPELGKNEALAYAFVEYANAGDGVQTRLKNGAFPATTADLQSTRFQDTAFPYFGGQKANKIFAESAADVPDDWSYLPYQVYANSVFNDTVGKAYVSGTTLAEGLESWQEASVKYDEEQGLPSRRKGIITITTDPNSSSVDKLAAALEHHHHHH”, the “soluble on expression in E. coli” value is given as “soluble”.

For the sequence “MSLARPQLTILHCGKLIDGHSKNTKKVVSIIVEKNTIVDIADGYVDPGEGDLAIDLNGYTVLPGLMDMHVHLSGESNPKRYTERFTMDLDDYAYRSIAYAKRTLMAGFTTVRDLGGPINTSLRDAINNNQVVGPRVYSAGKAIATTGGHADPTNGMKFELMGDPGPAEGVVNGIAEARKAVRQRYKNGADLIKITATGGVLSVAKNGENPQFQEDEIRAIVETATDYGMHVAAHAHGAEGMKRAVRAGVRSIEHGTLMDEETMALMKEKGTYYIPTISAGEFVAEKAEIDGYYPDIVRPKAKKIGPQIKKTFQKAYDAGVSIAFGTDSGVSYHGDNAKEFAYMVEAGMSEIEAIISATKTAAELLEISNTLGTIEKDKLADIIAVEGDPIENIVALESVVFVMKNGVIYKNGDNEGHHHHHH”, the “soluble on expression in E. coli” value was “soluble”.

“MVSQIGLLLPLSGDGQILGTTIQSGFNDAKGNSTIPVQVFDTSMNSVQDIIAQAKQAGIKTLVGPLLKQNLDVILADPAQIQGMDVLALNATPNSRAIPQLCYYGLSPEDEAESAANKMWNDGVRNPLVAMPQNDLGQRVGNAFNVRWQQLAGTDANIRYYNLPADVTYFVQENNSNTTALYAVASPTELAEMKGYLTNIVPNLAIYASSRASASATNTNTDFIAQMNGVQFSDIPFFKDTNSPQYQKLAKSTGGEYQLMRLYAMGADAWLLINQFNELRQVPGYRLSGLTGILSADTNCNVERDMTWYQYQDGAIVPVVDHHHHHH”: the “soluble on expression in E. coli” value was “soluble”.

For the sequence “MGSDKIHHHHHHMITIVKKVRNEIIRKIYRIPLFSNTADIAYQTAITQHTNHLPYLADSDLSLVKNLQEEGIVITSLTELSIPSTMEMLQAAKLLKTKIPINIAGNQNEFTVHASSEQIREHSSIFFWGLQERLLNIVENYLGLSVAYHGAYFRRDINNQVRKKSRLWHLDKEDRKMLKIIIYLNDVNEDGGPFEYIPKSLTSHISKSLKYDDTYIKDETMDQVVSSSYWQPCTGKSGAVIFVDTANIFHRGKLPLSSDRLSIFFDYTTRQPKHPFYCKSSLSNKDLLAVSAELSENQKQCIFWQHNYN”, the “soluble on expression in E. coli” value is given as “not soluble”.

“MNLMNVADKVIKSAFESDEVFQKTLSAVIKEDLNLTAVDFAKKANIPPSTLYKILSGNRDPNIKTLRQIVKTIRDIKESDSGEFIAVIAARSVLDNIVETKKKIGGRLVTIREYSATSMEDAIISAVNAERDGAKALVCAPIVGPTVEKILNIPVTTIAPKNSLIDAIERALKKME”: the “soluble on expression in E. coli” value was “not soluble”.

With “MSAGQRKEQKLIPVERRQIILEMVAEKGIVSIAELTDRINVSHMTIRRDLQKLEQQGAVVLVSGGVQSPGRVAHEPSHQVKTALAMTQKAAIGKLAASLVLPGSCIYLDAGTTTLAIAQHLIHMESLTVVTNDFVIANYLLDNSNCTIIHTGGAVCRENRSCVGEAAATMLCSLMIDQAFISASSWSVRGISTPAEDKVTVKRAIASASRQRVLVCDATKYGQVATWLALPLSEFDQIITDDGLPESASRALAKQDLSLLVAKNELEHHHHHH”, the “soluble on expression in E. coli” value is “soluble”.

“MVSRKRRAAQIESSRKGVASIRARCDMEASCSSSQENEASRASTSQCSSPKNLKMENVTILPKTLKLIHDDPKSQVIVSIQFEIEDTKKKISAAILNFNISKKANNAIRSERKRIVATILKTRKHVERFRRLWKKEKKKKEHSEILYKKSQLSKQETIAKFPPMFR”: the “soluble on expression in E. coli” value is reported as “not soluble”.

On to “MGSDKIHHHHHHMSSYVVSQEDVKNFLNLPSMNDQEGISFAYATDPDALAKLIPAPLKLVAPVVCGYVVHMGKPSFGGPYLEQTLFALVSYKDKMMGSYPLTLLLHGPGAEAGLVAGREGAGIPKKLADHIELRRNDNSASATVERHGKTLLSVDWEAGDVNDPSILQTFGSQFALNKESEMNSFFFTHDLVQDKQGANHFENVELVATQMKSLADRVEPGKLSIQLASTEDDPFGELPVLKPLGAMWYHFATSTMFNTLHLEQVDADKTAPYLITGRYDRSMMNPLATTYII”, for which the “soluble on expression in E. coli” value is “not soluble”.

In the case of “MQTSPLLTQLMEALRCLPGVGPKSAQRMAFTLLQRDRSGGMRLAQALTRAMSEIGHCADCRTFTEQEVCNICSNPRRQENGQICVVESPADIYAIEQTGQFSGRYFVLMGHLSPLDGIGPDDIGLDRLEQRLAEEKITEVILATNPTVEGEATANYIAELCAQYDVEASRIAHGVPVGGELEMVDGTTLSHSLAGRHKIRF”, the “soluble on expression in E. coli” value was “soluble”.
